Here are results for 2 molecules from paper PMC3923779, “Iron Acquisition in Bacillus cereus: The Roles of IlsA and Bacillibactin in Exogenous Ferritin Iron Mobilization” (PLoS Pathogens, 2014).

The labels stand for the following.
B1: IlsA (Iron-regulated leucine rich surface protein type A), recombinant, without signal peptide (natural protein, Bacillus cereus strain ATCC14579, UniProt Q81G77 29-760, looked up)
chain: ALKVEANQSVAAASDRTYDTEIKIYKDQKDEPSMVSQYIKDPKVTIAAGKKIVTVTMQDSDYFQYLRIEDKNQPGVFHDVKVLSEDKRKNGTKVVQFEIGEFEKKHNMQMHILIPAIGYDHKYQVQFEIKDPTVGNKETEKPDDNSNSGNTETDNPVDNQNMITDNKLRELVNKKVFNRKDLNTPITKEDLLQVKDLFLNTNEILDYSALKYMPNLKSLTVANAKIKDPSFFANLKQLNHLALRGNEFADVTPLVKMDNLESLDLSNNKITNVAPLTEMKNVKSLFLSGNQIEDVTALAKMEQLDYLNLANNKITNVAPLSNLKNVTYLTLAGNQIEDIKPLYTLPLKDLVLTRNKVKDLSGIDQLNQLQELWIGKNEITDVTPLSKMTQLKILNLPNNELKDITPLSSLVNLQKLDLEANYISDLSPVSNLKKLVFLSFVANEIRDVRPVIELSKTAYINVQNQKVFLEETEVNKEVKVPIYEKDGEISTKIRLKSDNGTYSNGVVKWSTPGEKVYEFGVKDPFADTGIFFTGSVIQNVVESKDGNTSKEDEKTEVVEFKDVPKGHWSEEAINYLAKEKLFIGYGNGEFGFGDNITRGQVALLIQRYLKLENNLEQKTAFTDTKGNMYETAIDAVVQAGIMTGYGNGMFRPDGVLTRYEMSVVLQRVFQLKENENSAENFKDVPNGHWAKGYVKALVDNKISKGDGEGNFLGDNFVTREQYAQFLYNAIKK
notes: IlsA of Bacillus cereus strain ATCC14579, NCBI gene number Bc1331; Holo form (hemin added until saturation of 80%) in the ITC; also called Holo-IlsA; full-length IlsA; source: E. coli C600 ΔhemA, purified (Bulk GST Purification Module, eluted with PreScission Protease); produced in apo-form, hemin added to reconstitute the holo-protein
B2: recombinant mouse H-chain ferritin (natural protein, UniProt P09528 1-182, looked up)
chain: MTTASPSQVRQNYHQDAEAAINRQINLELYASYVYLSMSCYFDRDDVALKNFAKYFLHQSHEEREHAEKLMKLQNQRGGRIFLQDIKKPDRDDWESGLNAMECALHLEKSVNQSLLELHKLATDKNDPHLCDFIETYYLSEQVKSIKELGDHVTNLRKMGAPEAGMAEYLFDKHTLGHGDES
notes: mouse ferritin H-chain, recombinant homopolymer; also called MoHF; recombinant mouse homopolymer H-chain; copies: 24

Holding throughout (experiment): ITC; 16 injections of 3 µl of 229 µM holo-IlsA into the cell with 1 µM ferritin; 25°C; 50 mM Tris-HCl pH 7, 150 mM NaCl, 1 mM EDTA, 1 mM DTT; model of one set of independent binding sites; apparent values
What all share (settings): both partners purified

The target in assay [1] is T1, recombinant human H-chain ferritin (human, UniProt P02794 1-183).
T1 construct: human ferritin H-chain, recombinant homopolymer of 24 H-subunits; loaded with 500 Fe/shell in the iron release assay; also called HuHF; holoHuHF; copies: 24
T1 sequence (P02794 whole entry): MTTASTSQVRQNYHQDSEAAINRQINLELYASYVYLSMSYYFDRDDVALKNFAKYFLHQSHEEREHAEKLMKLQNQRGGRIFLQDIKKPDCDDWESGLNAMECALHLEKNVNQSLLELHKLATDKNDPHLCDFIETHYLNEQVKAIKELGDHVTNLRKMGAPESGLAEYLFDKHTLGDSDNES

Assay [2] concerns the target T2, recombinant human L-chain ferritin (human, UniProt P02792 1-175).
T2 construct: human ferritin L-chain, recombinant homopolymer of 24 L-subunits; also called HuLF; recombinant human homopolymer L-chain; copies: 24

The target of assay [3] is T3, recombinant human heteropolymer H/L ferritin (human, UniProt P02794 1-183; P02792 1-175).
T3 construct: human ferritin H-chain in the recombinant heteropolymer; human ferritin L-chain in the recombinant heteropolymer; The results print ∼20 H-chains and 4 L-chains; also called HuH/LF; recombinant heteropolymer ferritin; copies: 20 + 4
T3 sequence (P02794 whole entry, chain 1 of 2): as the sequence (P02794 whole entry) above
T3 sequence (P02792 whole entry, chain 2 of 2): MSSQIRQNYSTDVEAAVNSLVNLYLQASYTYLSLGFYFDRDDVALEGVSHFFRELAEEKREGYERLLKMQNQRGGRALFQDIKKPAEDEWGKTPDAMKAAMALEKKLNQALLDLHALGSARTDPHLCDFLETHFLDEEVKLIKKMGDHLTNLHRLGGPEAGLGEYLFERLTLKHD

The target in assay [4] is B2.
The target of assay [5] is B1.

T2 sequence (P02792 whole entry): as the sequence (P02792 whole entry, chain 2 of 2) above

As to B1, the dH in assay [1] was -0.982 kcal/mol; in assay [2], -2.08 kcal/mol; in assay [3], -2.08 kcal/mol; in assay [4], -0.801 kcal/mol. Also, the “stoichiometry N” value in assay [1] stood at 25.2 IlsA per ferritin shell; in assay [2] it was 23.9 IlsA per ferritin shell; in assay [3], 23.8 IlsA per ferritin shell; in assay [4], 24.9 IlsA per ferritin shell.
In the case of B2, the Ka in assay [5] was found to be 2.07e+06 M⁻¹.
